This passage reports times longer bound than the reference antibody results from patent US20230057012A1, “TGFB INHIBITORS AND USE THEREOF” (Scholar Rock, Inc., priority 2020, published 2023).

The target in this assay is antigen of FIG. 2 (not named). The assay is described as follows: SPR Biacore, Fab (FIG. 2). On the technique in general: Surface plasmon resonance follows binding to a sensor surface in real time, without labels.

B1: Ab46 Fab (Fab, V domains shown)
VH: EVQLLESGGGLVQPGGSLRLSCAASGFTFADYAMTWVRQAPGKGLEWVSAISGSGAATYFADSVKGRFTISRDNSKNTLYLQMNSLRAEDTAVYYCARVSSGHWDYDYWGQGTLVTVSS
VL: DIQLTQSPSSLSASVGDRVTITCRASQSISSYLNWYQQKPGKAPKLLIYAASGLESGVPSRFSGSGSGTDFTLTISSLQPEDFATYYCQQTYGVPLTFGGGTKVEIK
In turn, B1 showed a times longer bound than the reference antibody above 50 fold.
